Measured values from publication PMC5565510 (Journal of molecular biology, 2017).

T1: Sulfolobus islandicus PilT N-terminal-domain-containing ATPase (SisPINA), untagged (Sulfolobus islandicus REY15A, UniProt F0NID4 1-505)
T1 sequence (looked up): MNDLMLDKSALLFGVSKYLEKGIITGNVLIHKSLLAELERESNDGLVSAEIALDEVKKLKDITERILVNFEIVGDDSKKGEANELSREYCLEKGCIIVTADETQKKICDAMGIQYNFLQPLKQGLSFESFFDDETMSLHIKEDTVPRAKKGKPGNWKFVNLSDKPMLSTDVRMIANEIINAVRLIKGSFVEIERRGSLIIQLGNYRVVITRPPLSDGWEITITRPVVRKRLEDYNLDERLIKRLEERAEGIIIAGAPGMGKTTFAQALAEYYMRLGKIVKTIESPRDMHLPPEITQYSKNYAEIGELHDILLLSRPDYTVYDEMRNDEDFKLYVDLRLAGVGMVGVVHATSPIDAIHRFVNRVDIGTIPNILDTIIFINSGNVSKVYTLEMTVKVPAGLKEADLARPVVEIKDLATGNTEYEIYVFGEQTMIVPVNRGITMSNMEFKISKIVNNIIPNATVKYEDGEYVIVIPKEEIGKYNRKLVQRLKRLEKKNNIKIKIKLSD


Columns and labels:
crystal structure = target: the molecule itself; test: crystal structure
[1] = target: T1, Sulfolobus islandicus PilT …; test: pull-down

| binding result [1] | Binder | stoichiometry N (crystal structure) |
| --- | --- | --- |
| – | SisPINAK261A, Walker A mutant of SisPINA (enzyme, Sulfolobus islandicus REY15A, UniProt F0NID4 1-505, looked up) MNDLMLDKSALLFGVSKYLEKGIITGNVLIHKSLLAELERESNDGLVSAEIALDEVKKLKDITERILVNFEIVGDDSKKGEANELSREYCLEKGCIIVTADETQKKICDAMGIQYNFLQPLKQGLSFESFFDDETMSLHIKEDTVPRAKKGKPGNWKFVNLSDKPMLSTDVRMIANEIINAVRLIKGSFVEIERRGSLIIQLGNYRVVITRPPLSDGWEITITRPVVRKRLEDYNLDERLIKRLEERAEGIIIAGAPGMGATTFAQALAEYYMRLGKIVKTIESPRDMHLPPEITQYSKNYAEIGELHDILLLSRPDYTVYDEMRNDEDFKLYVDLRLAGVGMVGVVHATSPIDAIHRFVNRVDIGTIPNILDTIIFINSGNVSKVYTLEMTVKVPAGLKEADLARPVVEIKDLATGNTEYEIYVFGEQTMIVPVNRGITMSNMEFKISKIVNNIIPNATVKYEDGEYVIVIPKEEIGKYNRKLVQRLKRLEKKNNIKIKIKLSD | 6 |
| binds | N-terminal His-tagged SisHjc (enzyme, Sulfolobus islandicus REY15A, UniProt F0NID3 1-143, looked up) MNAKKRKGSAVERNIVGKLRDKGFAVVRAPASGSKRKDPIPDIIALKSGVIILIEMKSRKDKEGKIYVRREQAEGIMEFARKSGGTLFLGVKKPGVLKFIPFDKLRRTETGNYVADSEIEGLDLEDLVRLVEAKVSKTLDNFL | – |
